Numbering of substitutions follows the chain as printed.
Key:
TLR3 ectodomain Mut10 = biological target: T1, TLR3 ectodomain Mut10 (mouse, UniProt Q99MB1 26-705, S116E;Q118E;K138E;K140E;N142E;K145E;N146E); test: cryo-EM 3D reconstruction; dimer identical to WT; Protein in 25 mM MES-NaOH pH 5.3, 0.2-0.3 M NaCl (purification buffer); complex formation conditions not in the material; settings: protein: recombinant; tags: C-terminal FLAG-His6; chain copies: 2; blunt
T1 sequence: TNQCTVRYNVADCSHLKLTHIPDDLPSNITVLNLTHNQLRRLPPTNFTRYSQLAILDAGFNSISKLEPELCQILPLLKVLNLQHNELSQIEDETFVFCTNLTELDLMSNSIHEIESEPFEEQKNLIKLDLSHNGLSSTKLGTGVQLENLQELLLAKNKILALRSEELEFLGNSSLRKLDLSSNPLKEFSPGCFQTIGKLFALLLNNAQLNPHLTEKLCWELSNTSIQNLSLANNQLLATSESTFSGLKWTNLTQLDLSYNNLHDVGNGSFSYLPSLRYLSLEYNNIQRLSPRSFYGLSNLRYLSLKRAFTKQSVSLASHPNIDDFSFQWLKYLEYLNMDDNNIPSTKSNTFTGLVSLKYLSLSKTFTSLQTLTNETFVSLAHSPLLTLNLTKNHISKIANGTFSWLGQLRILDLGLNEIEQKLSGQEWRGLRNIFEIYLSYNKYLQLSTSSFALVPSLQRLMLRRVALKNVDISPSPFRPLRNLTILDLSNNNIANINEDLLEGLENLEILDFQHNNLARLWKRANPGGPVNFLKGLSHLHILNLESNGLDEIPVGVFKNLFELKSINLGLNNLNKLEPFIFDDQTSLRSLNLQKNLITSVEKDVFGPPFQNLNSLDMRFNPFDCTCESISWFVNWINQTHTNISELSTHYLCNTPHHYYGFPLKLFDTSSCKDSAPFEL

TLR3 ectodomain WT = biological target: T2, TLR3 ectodomain WT (mouse, UniProt Q99MB1 26-705); test: cryo-EM structure; two TLR3 dimers laterally aligned along dsRNA; Protein in 25 mM MES-NaOH pH 5.3, 0.2-0.3 M NaCl (purification buffer); complex formation conditions not in the material; settings: protein: recombinant; tags: C-terminal FLAG-His6; chain copies: 4; blunt
T2 sequence: T1 sequence with E91S, E93Q, E113K, E115K, E117N, E120K, E121N

B1: 46 bp dsRNA (dsRNA)
RNA 1: AUUCUGCGGAUUAUUUGGCAAAGGAAGCAUUGACACAUGCGCCAAU
RNA 2: AUUGGCGCAUGUGUCAAUGCUUCCUUUGCCAAAUAAUCCGCAGAAU
modifications: 2'-O-methyl at strand 1 positions 10-15 and 36-41 (lower case); complement modifications not stated
Question: Does B1 bind (TLR3 ectodomain Mut10)?
Answer: binds

B2: 90 bp dsRNA (dsRNA)
RNA 1: AUUCUGCGGAUUAUUUGGCAAAGGAAGCAUUGACACAUGCGCCAAUUCUGCGGAUUAUUUGGCAAAGGAAGCAUUGACACAUGCGCCAAU
RNA 2: AUUGGCGCAUGUGUCAAUGCUUCCUUUGCCAAAUAAUCCGCAGAAUUGGCGCAUGUGUCAAUGCUUCCUUUGCCAAAUAAUCCGCAGAAU
modifications: 2'-O-methyl at strand 1 positions 10-15 and 80-85 (lower case); complement modifications not stated
Question: Does B2 bind (TLR3 ectodomain WT)?
Answer: binds
